B1: CD3 × CD33-BspAb83 (bispecific antibody)
chain 1: EVQLVESGGGLVKPGGSLRLSCVASGFTFSRYSMNWVRQAPGKCLEWVSSISSSSRYTYYADSLKGRFIMSRDNAKNSLFLQMNSLRAEDTAVYYCARNLYNALDYWGQGTLVTVSSGGGGSGGGGSGGGGSGGGGSFMLTQPHSVSESPGKTVTISCTRSSGSIASNYVQWYQQRPGSSPTTVIYEDNQRPSGVPDRFSGSIDSSSNSASLTISGLQTEDEADYYCQSYDSSNRVFGCGTKLTVLDKTHTCPPCPAPEFEGGPSVFLFPPKPKDTLMISRTPEVTCVVVDVSHEDPEVKFNWYVDGVEVHNAKTKPREEQYNSTYRVVSVLTVLHQDWLNGKEYKCKVSNKALPASIEKTISKAKGQPREPQVYTLPPCREEMTKNQVSLWCLVKGFYPSDIAVEWESNGQPENNYKTTPPVLDSDGSFFLYSKLTVDKSRWQQGNVFSCSVMHEALHNHYTQKSLSLSPGK
chain 2: EVQLVQSGAEVKKPGSSVKVSCKASGYTITDSNIHWVRQAPGQSLEWIGYIYPYNGGTDYNQKFKNRATLTVDNPTNTAYMELSSLRSEDTAFYYCVNGNPWLAYWGQGTLVTVSSASTKGPSVFPLAPSSKSTSGGTAALGCLVKDYFPEPVTVSWNSGALTSGVHTFPAVLQSSGLYSLSSVVTVPSSSLGTQTYICNVNHKPSNTKVDKRVEPKSCDKTHTCPPCPAPEFEGGPSVFLFPPKPKDTLMISRTPEVTCVVVDVSHEDPEVKFNWYVDGVEVHNAKTKPREEQYNSTYRVVSVLTVLHQDWLNGKEYKCKVSNKALPASIEKTISKAKGQPREPQVCTLPPSREEMTKNQVSLSCAVKGFYPSDIAVEWESNGQPENNYKTTPPVLDSDGSFFLVSKLTVDKSRWQQGNVFSCSVMHEALHNRFTQKSLSLSPGK
chain 3: DIQLTQSPSTLSASVGDRVTITCRASESLDNYGIRFLTWFQQKPGKAPKLLMYAASNQGSGVPSRFSGSGSGTEFTLTISSLQPDDFATYYCQQTKEVPWSFGQGTKVEVKRTVAAPSVFIFPPSDEQLKSGTASVVCLLNNFYPREAKVQWKVDNALQSGNSQESVTEQDSKDSTYSLSSTLTLSKADYEKHKVYACEVTHQGLSSPVTKSFNRGEC
B2: CD3 × CD33-BspAb91 (bispecific antibody)
chain 1: DIQMTQSPSTLSASVGDRVTITCRASQSISSWLAWFQQKTGKAPKLLIYKASSLESGVPSRFSGSGSGTEFTLTISSLQPDDFATYYCQQYISYSWTFGCGTKVEIKGGGGSGGGGSGGGGSGGGGSEVQLVESGGGLVQRGGSLRLSCAASGFTFSNYWMSWVRQAPGKCLEWVANIKEDGSEKYYVDSVKGRFTISRDNAKHSLYLQMNSLRAEDTAVYYCARERRTGYFDYWGQGTLVTVSSDKTHTCPPCPAPEFEGGPSVFLFPPKPKDTLMISRTPEVTCVVVDVSHEDPEVKFNWYVDGVEVHNAKTKPREEQYNSTYRVVSVLTVLHQDWLNGKEYKCKVSNKALPASIEKTISKAKGQPREPQVYTLPPCREEMTKNQVSLWCLVKGFYPSDIAVEWESNGQPENNYKTTPPVLDSDGSFFLYSKLTVDKSRWQQGNVFSCSVMHEALHNHYTQKSLSLSPGK
chain 2: B1 chain 2
chain 3: B1 chain 3
B3: CD3 × CD33-BspAb84 (bispecific antibody)
scFv-Fc: EVQVAESGGGLVKPGGSLRLSCAASGFTFSRYSMNWVRQAPGKCLEWVSSISSSGSYTYYADSVKGRFTISRDNAKNSLYLQMNSLRAEDTAVYYCVRERGKGAGMDVWGQGTTVTVSSGGGGSGGGGSGGGGSGGGGSNFMLTQPHSVSESPGKTVTISCTRSSGSIASNYVQWYQQRPGSSPTTVIYEDNQRPSGVPDRFSGSIDSSSNSASLTISGLKTEDEADYYCQSYDSSNRVFGCGTKLTVLGGGGSDKTHTCPPCPAPEFEGGPSVFLFPPKPKDTLMISRTPEVTCVVVDVSHEDPEVKFNWYVDGVEVHNAKTKPREEQYNSTYRVVSVLTVLHQDWLNGKEYKCKVSNKALPASIEKTISKAKGQPREPQVYTLPPCREEMTKNQVSLWCLVKGFYPSDIAVEWESNGQPENNYKTTPPVLDSDGSFFLYSKLTVDKSRWQQGNVFSCSVMHEALHNHYTQKSLSLSPGK
heavy: B1 chain 2
light: B1 chain 3
notes: KiH heterodimer
B4: CD3 × CD33-BspAb85 (bispecific antibody)
scFv-Fc: EVQLVESGGGLVKPGGSLRLSCAASGFTFSSYSMNWVRQAPGKCLEWVSSISRSSGYIFYADSVKGRFTISRDNAKNSLYLQMNSLRAEDTAVYYCVRERVGAGFDYWGQGTLVTVSSGGGGSGGGGSGGGGSGGGGSNFMLTQPHSVSESPGKTVAISCTRSSGSIASNYVQWYQQRPGSSPTAVIYEDNQRPSGVPDRFSGSIDSSSNSAFLTISGLKTEDEADYYCQSYDSSNRVFGCGTKLTVLGGGGSDKTHTCPPCPAPEFEGGPSVFLFPPKPKDTLMISRTPEVTCVVVDVSHEDPEVKFNWYVDGVEVHNAKTKPREEQYNSTYRVVSVLTVLHQDWLNGKEYKCKVSNKALPASIEKTISKAKGQPREPQVYTLPPCREEMTKNQVSLWCLVKGFYPSDIAVEWESNGQPENNYKTTPPVLDSDGSFFLYSKLTVDKSRWQQGNVFSCSVMHEALHNHYTQKSLSLSPGK
heavy: B1 chain 2
light: B1 chain 3
notes: KiH heterodimer
B5: CD3 × CD33-BspAb89 (bispecific antibody)
scFv-Fc: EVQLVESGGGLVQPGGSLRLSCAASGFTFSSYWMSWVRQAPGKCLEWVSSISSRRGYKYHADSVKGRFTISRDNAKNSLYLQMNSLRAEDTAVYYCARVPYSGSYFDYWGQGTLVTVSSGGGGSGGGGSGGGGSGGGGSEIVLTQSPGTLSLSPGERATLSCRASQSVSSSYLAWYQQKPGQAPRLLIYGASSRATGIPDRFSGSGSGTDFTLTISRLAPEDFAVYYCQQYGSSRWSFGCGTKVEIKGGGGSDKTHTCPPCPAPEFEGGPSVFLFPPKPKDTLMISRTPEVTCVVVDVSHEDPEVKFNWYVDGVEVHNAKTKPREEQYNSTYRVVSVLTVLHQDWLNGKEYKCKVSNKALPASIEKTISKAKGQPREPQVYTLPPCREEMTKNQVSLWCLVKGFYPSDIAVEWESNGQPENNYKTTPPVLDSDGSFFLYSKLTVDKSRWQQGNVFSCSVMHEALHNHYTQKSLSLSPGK
heavy: B1 chain 2
light: B1 chain 3
notes: KiH heterodimer
B6: CD3 × CD33-BspAb86 (bispecific antibody)
scFv-Fc: EVQLVESGGGLVKPGGSLRLSCAASGFTFSSYSMNWVRQAPGKCLEWVSSISRSGTYIYYADSVKGRFTISRDNAKNSLYLQMNSLRAEDTAVYYCARERWELLYFDYWGQGTLVTVSSGGGGSGGGGSGGGGSGGGGSQTVVTQEPSLTVSPGGTVTLTCASSTGAVTSGYYPNWFQQKPGQAPRALIYSTSNKHSWTPARFSGSLLGGKAALTLSGVQPEDEAEYYCLLYYGGAYVFGCGTKVTVLGGGGSDKTHTCPPCPAPEFEGGPSVFLFPPKPKDTLMISRTPEVTCVVVDVSHEDPEVKFNWYVDGVEVHNAKTKPREEQYNSTYRVVSVLTVLHQDWLNGKEYKCKVSNKALPASIEKTISKAKGQPREPQVYTLPPCREEMTKNQVSLWCLVKGFYPSDIAVEWESNGQPENNYKTTPPVLDSDGSFFLYSKLTVDKSRWQQGNVFSCSVMHEALHNHYTQKSLSLSPGK
heavy: B1 chain 2
light: B1 chain 3
notes: KiH heterodimer
B7: CD3 × CD33-BspAb90 (bispecific antibody)
scFv-Fc: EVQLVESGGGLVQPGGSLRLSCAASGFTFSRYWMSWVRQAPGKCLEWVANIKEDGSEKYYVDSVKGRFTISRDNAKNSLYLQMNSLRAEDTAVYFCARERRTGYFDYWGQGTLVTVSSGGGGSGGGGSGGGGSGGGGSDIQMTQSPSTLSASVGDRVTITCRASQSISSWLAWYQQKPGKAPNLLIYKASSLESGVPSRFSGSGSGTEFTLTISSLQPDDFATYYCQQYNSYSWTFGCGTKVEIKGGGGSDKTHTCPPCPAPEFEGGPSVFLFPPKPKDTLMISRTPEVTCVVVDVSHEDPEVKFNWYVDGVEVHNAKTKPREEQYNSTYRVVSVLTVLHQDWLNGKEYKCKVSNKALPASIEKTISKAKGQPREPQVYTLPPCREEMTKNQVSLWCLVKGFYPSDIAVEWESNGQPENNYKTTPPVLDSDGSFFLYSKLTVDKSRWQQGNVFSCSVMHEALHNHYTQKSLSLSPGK
heavy: B1 chain 2
light: B1 chain 3
notes: KiH heterodimer

T1 sequence (P07766 23-207, chain 1 of 3): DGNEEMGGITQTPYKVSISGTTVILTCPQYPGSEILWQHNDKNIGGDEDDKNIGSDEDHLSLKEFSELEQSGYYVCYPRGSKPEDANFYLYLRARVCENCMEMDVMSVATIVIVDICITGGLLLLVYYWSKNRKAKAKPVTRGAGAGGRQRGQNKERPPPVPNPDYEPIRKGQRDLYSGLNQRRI
T1 sequence (P04234 22-171, chain 2 of 3): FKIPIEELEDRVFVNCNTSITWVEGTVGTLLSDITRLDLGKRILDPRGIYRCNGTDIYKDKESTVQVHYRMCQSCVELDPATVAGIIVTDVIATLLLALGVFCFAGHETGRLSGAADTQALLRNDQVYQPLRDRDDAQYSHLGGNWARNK
T1 sequence (P09693 23-182, chain 3 of 3): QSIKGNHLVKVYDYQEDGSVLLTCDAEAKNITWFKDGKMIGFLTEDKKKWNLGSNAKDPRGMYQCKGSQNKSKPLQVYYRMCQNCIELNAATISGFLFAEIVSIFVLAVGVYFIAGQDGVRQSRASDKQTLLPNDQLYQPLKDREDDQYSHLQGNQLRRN

The first experiment has as its target T1, human CD3 (TCR/CD3 complex on the cell surface) (human, UniProt P07766 23-207; P04234 22-171; P09693 23-182).
T1 construct: whole, on cells; Native CD3 on human Pan-T cells or Jurkat wild-type cells; also called CD3 on Pan-T cells; CD3 on Jurkat WT cells
The experiment is described as follows: flow cytometry, Pan-T cells, 1 ug/mL.
On to B1, for which the “% Positive” value came out at 99.8% and the gMFI amounted to 566000 gMFI.
The like results for B2 were, in that order, 94.6% and 18500 gMFI.
For B3 the same measures were 99.9% and 173000 gMFI.
For B4 the same measures were 99.4% and 96000 gMFI.
Consider B5, for which the “% Positive” value came to 0.6% and the gMFI came to 1830 gMFI.
For B6 the same measures were 35.2% and 5410 gMFI.
For B7 the same measures were 83.8% and 11600 gMFI.

For the next experiment, the target named is T1, human CD3 (TCR/CD3 complex on the cell …). The experiment is described as follows: flow cytometry, Jurkat WT cells, 1 ug/mL.
B1 registered a gMFI of 67700 gMFI.
On the same count and under the same terms, with B2 the figure was 8110 gMFI; with B3, 35200 gMFI; with B4, 18900 gMFI.
As to B5, the gMFI came to 1840 gMFI.
Same read-out and setting: the same measure for B6: 3180 gMFI; for B7: 4480 gMFI.

The target is the same in another experiment. Description: flow cytometry, Jurkat WT gMFI over Jurkat KO gMFI, 1 ug/mL.
Consider B1, for which the “Jurkat WT/KO (Fold)” value was determined as 14 fold.
The same measure, in the same setting: the same measure for B2: 3.7 fold; for B3: 10.8 fold.
Same read-out and setting: with B4 the figure was 6.2 fold; with B5, 0.8 fold.
Same read-out and setting: with B6 the figure was 1.4 fold.
In the case of B7, the “Jurkat WT/KO (Fold)” value was 1.9 fold.

Another experiment has the same target. Description: flow cytometry, Pan-T cells, 10 ug/mL.
For the molecule B1, the “% Positive” value is 99.8% and the gMFI turned out to be 598000 gMFI.
For B2 the same measures were 99.4% and 127000 gMFI.
The like results for B3 were, in that order, 99.9% and 362000 gMFI.
For B4 the same measures were 99.7% and 249000 gMFI.
Take B5: the “% Positive” value was 1.7% and the gMFI was determined as 1960 gMFI.
For B6 the same measures were 92.4% and 25400 gMFI.
The like results for B7 were, in that order, 98.1% and 78400 gMFI.

Another experiment has the same target. Description: flow cytometry, Jurkat WT cells, 10 ug/mL.
In the case of B1, the gMFI came to 69100 gMFI.
B2: the gMFI came out at 31600 gMFI.
Still for that read-out and setting: with B3 the figure was 51000 gMFI.
On the same count and under the same terms, the same measure for B4: 32000 gMFI.
In the case of B5, the gMFI was 1750 gMFI.
The same measure, in the same setting: with B6 the figure was 9550 gMFI; with B7, 19400 gMFI.

For another experiment the target is unchanged. The experiment is described as follows: flow cytometry, Jurkat WT gMFI over Jurkat KO gMFI, 10 ug/mL.
Turning to B1, the “Jurkat WT/KO (Fold)” value came to 14.3 fold.
Same read-out and setting: with B2 the figure was 10.4 fold.
The same measure, in the same setting: with B3 the figure was 13.9 fold.
On the same count and under the same terms, with B4 the figure was 9.9 fold; with B5, 0.9 fold.
Regarding B6, the “Jurkat WT/KO (Fold)” value stood at 3.9 fold.
Still for that read-out and setting: the same measure for B7: 7.5 fold.

Values taken from patent US20260167721A1 (ABLEXIS, published 2026).
